# Source: PMC8792006, “Engineering the stambomycin modular polyketide synthase yields 37-membered mini-stambomycins” (Nature Communications, 2022)
# Changes are numbered by the printed parent chain.
# T1: ^NDD9 Met (N-terminal docking domain of stambomycin PKS subunit Pks9, version with the Met start site) (Streptomyces ambofaciens ATCC23877)
# T1 chain: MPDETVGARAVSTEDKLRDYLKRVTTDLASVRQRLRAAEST
# T2: ^NDD9 Val (N-terminal docking domain of stambomycin PKS subunit Pks9, version with the Val start site) (Streptomyces ambofaciens ATCC23877)
# T2 chain: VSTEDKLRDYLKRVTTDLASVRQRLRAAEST
# T3: ^NDD5 (N-terminal docking domain of stambomycin PKS subunit Pks5) (Streptomyces ambofaciens ATCC23877)
# T3 chain: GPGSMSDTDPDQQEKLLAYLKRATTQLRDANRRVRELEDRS
# B1: ^CDD8 (C-terminal docking domain of stambomycin PKS subunit Pks8) (domain or fragment)
# chain: GPGSYGPAALLADLDRLDAALAGTGPGDETRSRVISRLHALLARHDTADGSGLVTAAGNLDAADDDNLFAFIDNELGA
# B2: ^CDD4 wt (C-terminal docking domain of stambomycin PKS subunit Pks4) (domain or fragment)
# chain: GPGSYADRLLAELARLEADLTRMDGDEEDRTRLAARLRALADRCQGERTRRDDNLDAASIEEVFDLLDTEFETP
# B3: ^CDD4 SDM (C-terminal docking domain of Pks4 with 3 specificity-code residues mutated to match ^CDD8) (domain or fragment)
# chain: B2 chain with E61D, L67I, F71L
# B4: ^CDD4 helix swap (C-terminal docking domain of Pks4 with its docking α-helix exchanged for that of ^CDD8) (domain or fragment)
# chain: GPGSYADRLLAELARLEADLTRMDGDEEDRTRLAARLRALADRCQGERTRRDDNLDAADDDNLFAFIDNELGA
# What was measured:
# [1] = target: the molecule itself; test: SEC-MALS; Superdex75 10/300, 20 °C, 0.5 mL min^-1, 20 mM HEPES, 100 mM NaCl, 0.5 mM TCEP, pH 7.5; each docking domain alone
# [2] = target: T1, ^NDD9 Met (N-terminal docking domain of …); test: ITC; ^CDD (700 μM) in the syringe titrated into the ^NDD in the cell (^NDD5 70 μM; ^NDD9 Met 80 μM; ^NDD9 Val 120 μM); 20 °C; buffer GF (20 mM HEPES, 100 mM NaCl, 0.5 mM TCEP, pH 7.5); one-site binding model; two independent titrations; settings: both partners purified
# [3] = target: T2, ^NDD9 Val (N-terminal docking domain of …); test: as above; settings: both partners purified
# [4] = target: T3, ^NDD5 (N-terminal docking domain of …); test: as above; settings: both partners purified
Binder,stoichiometry N [1],Kd [2] [µM],stoichiometry N [2],Kd [3] [µM],stoichiometry N [3],Kd [4] [µM],stoichiometry N [4]
B1,2,33 ± 2,2 monomeric ^NDDs per homodimeric ^CDD,22 ± 1,2 monomeric ^NDDs per homodimeric ^CDD,,
B2,2,,,,,14.5 ± 0.9,2 monomeric ^NDDs per homodimeric ^CDD
B3,2,,,,,,
B4,2,,,21 ± 0.3,,,
